Assay results taken from patent publication US20230265151A1, “GIP/GLP1 CO-AGONIST COMPOUNDS” (priority 2020, published 2023).
Where a chain is given by its changes, count along the chain named.

T1: human GIP receptor (human, UniProt P48546 22-466)
T1 sequence (looked up): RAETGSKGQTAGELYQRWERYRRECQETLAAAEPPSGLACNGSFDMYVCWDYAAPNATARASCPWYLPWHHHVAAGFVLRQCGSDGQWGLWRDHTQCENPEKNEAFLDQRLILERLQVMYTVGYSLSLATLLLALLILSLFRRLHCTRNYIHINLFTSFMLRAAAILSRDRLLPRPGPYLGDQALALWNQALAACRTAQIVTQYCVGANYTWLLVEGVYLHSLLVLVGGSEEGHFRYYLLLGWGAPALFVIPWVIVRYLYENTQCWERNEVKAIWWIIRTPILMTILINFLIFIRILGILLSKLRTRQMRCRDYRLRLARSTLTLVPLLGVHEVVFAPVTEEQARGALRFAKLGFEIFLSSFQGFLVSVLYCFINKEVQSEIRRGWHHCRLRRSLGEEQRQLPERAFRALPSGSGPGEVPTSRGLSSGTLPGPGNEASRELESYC

B1: Example 113 (peptide)
peptide: YXEGTXTSDXXIXLDXKAQXEFIKXLIEGGPSSGAPPPS
modifications: Aib2, αMeF(2F)6, 4Pal10, Aib11, αMeL13, Orn16, Aib20, αMeY25, K17 and K24: K(AEEA2-(γ-Glu)-CO-(CH2)12-CO2H), C-terminal NH2
B2: Example 127 (peptide)
peptide: B1 peptide with X11S, E21K, K24X
modifications: Aib2, αMeF(2F)6, 4Pal10, αMeL13, Orn16, Aib20, D-Glu24, αMeY25, K17 and K21: K(AEEA2-(γ-Glu)-(10-(4-carboxyphenoxy)decanoyl)), C-terminal NH2
B3: Example 128 (peptide)
peptide: B1 peptide with X11S
modifications: Aib2, αMeF(2F)6, 4Pal10, αMeL13, Orn16, Aib20, αMeY25, K17 and K24: K(AEEA2-(γ-Glu)-(10-(4-carboxyphenoxy)decanoyl)), C-terminal NH2
B4: Example 118 (peptide)
peptide: B1 peptide with X10V, X11S, F22X
modifications: Aib2, αMeF(2F)6, αMeL13, Orn16, Aib20, αMeF22, αMeY25, K17 and K24: K(AEEA2-(γ-Glu)-CO-(CH2)12-CO2H), C-terminal NH2
B5: Example 114 (peptide)
peptide: B1 peptide with X10V, X11S
modifications: Aib2, αMeF(2F)6, αMeL13, Orn16, Aib20, αMeY25, K17 and K24: K(AEEA2-(γ-Glu)-CO-(CH2)12-CO2H), C-terminal NH2
B6: Example 121 (peptide)
peptide: B1 peptide with F22X
modifications: Aib2, αMeF(2F)6, 4Pal10, Aib11, αMeL13, Orn16, Aib20, αMeF22, αMeF25, K17 and K24: K(AEEA2-(γ-Glu)-CO-(CH2)12-CO2H), C-terminal NH2
B7: Example 125 (peptide)
peptide: B1 peptide with X11S, K24X, P31K
modifications: Aib2, αMeF(2F)6, 4Pal10, αMeL13, Orn16, Aib20, D-Glu24, αMeY25, K17 and K31: K(AEEA2-(γ-Glu)-(7-(4-carboxyphenoxy)heptanoyl)), C-terminal NH2
B8: Example 126 (peptide)
peptide: B1 peptide with X11S, K24X, P31K
modifications: Aib2, αMeF(2F)6, 4Pal10, αMeL13, Orn16, Aib20, D-Glu24, αMeY25, K17 and K31: K(AEEA2-(γ-Glu)-(8-(4-carboxyphenoxy)octanoyl)), C-terminal NH2
B9: Example 131 (peptide)
peptide: B1 peptide with X11S, E21K, K24X
modifications: Aib2, αMeF(2F)6, 4Pal10, αMeL13, Orn16, Aib20, D-Glu24, αMeY25, K17 and K21: K(AEEA2-(γ-Glu)-(4-(4-tert-butylphenyl)butanoyl)), C-terminal NH2
B10: Example 124 (peptide)
peptide: B1 peptide with X11S, F22X
modifications: Aib2, αMeF(2F)6, Ac5c10, αMeL13, Orn16, Aib20, αMeF22, αMeF25, K17 and K24: K(AEEA2-(γ-Glu)-CO-(CH2)12-CO2H), C-terminal NH2
B11: Example 122 (peptide)
peptide: B1 peptide with X10V, X11S, F22X
modifications: Aib2, αMeF(2F)6, αMeL13, Orn16, Aib20, αMeF22, αMeF25, K17 and K24: K(AEEA2-(γ-Glu)-CO-(CH2)12-CO2H), C-terminal NH2
B12: Example 12 (peptide)
peptide: B1 peptide with X11S, K24X, P31K
modifications: Aib2, αMeF(2F)6, 4Pal10, αMeL13, Orn16, Aib20, D-Glu24, αMeY25, K17 and K31: K(AEEA-(γ-Glu)-(10-(4-carboxyphenoxy)decanoyl)), C-terminal NH2

target: human GLP-1 receptor (human, UniProt P43220 24-463); assay: cell-based or functional assay

Going from B1 to B2, the “EC50, cAMP” value rises from 0.291 nM to 0.762 nM (2.6-fold).

B3 and B4 are within 1.5-fold of each other in “EC50, cAMP” value: 0.293 nM for the first, 0.437 nM for the second.

Compared with B5, B6 is 51-fold higher in “EC50, cAMP” value: 0.176 nM for the first, 8.95 nM for the second.

Going from B7 to B8, the “EC50, cAMP” value falls from 2.78 nM to 1.69 nM (1.6-fold).

Compared with B9, B10 is 6.5-fold higher in “EC50, cAMP” value: 0.19 nM for the first, 1.24 nM for the second.

B11 and B12 are within 1.5-fold of each other in “EC50, cAMP” value: 0.41 nM for the first, 0.423 nM for the second.

Going from B5 to B10, the “Emax, cAMP” value rises from 91.7% to 93.3%.

With B11 the “Emax, cAMP” value was 94.3%.

target: T1, human GIP receptor; assay: cell-based or functional assay

B1 and B2 are within 1.5-fold of each other in “EC50, cAMP” value: 0.0331 nM for the first, 0.027 nM for the second.

Going from B3 to B4, the “EC50, cAMP” value rises from 0.0232 nM to 0.0547 nM (2.4-fold).

Compared with B5, B6 is 2.3-fold lower in “EC50, cAMP” value: 0.0613 nM for the first, 0.0271 nM for the second.

B7 and B8 are within 1.5-fold of each other in “EC50, cAMP” value: 0.0547 nM for the first, 0.0472 nM for the second.

Compared with B9, B10 is 6.4-fold higher in “EC50, cAMP” value: 0.0156 nM for the first, 0.1 nM for the second.

Compared with B11, B12 is 5-fold lower in “EC50, cAMP” value: 0.064 nM for the first, 0.0127 nM for the second.

First: B1
Second: B4
The “Emax, cAMP” value of the first is higher: 97.9% for the first, 94.7% for the second.

Compared with B5, B6 is lower in “Emax, cAMP” value: 93.8% for the first, 92.8% for the second.

target: human glucagon receptor (human, UniProt P47871 26-477); assay: cell-based or functional assay

B1 and B2 cannot be ordered by “EC50, cAMP” value: greater than 9950 nM for the first, greater than 9950 nM for the second.

B3 and B4 cannot be ordered by “EC50, cAMP” value: greater than 9950 nM for the first, greater than 9950 nM for the second.

B5 and B6 cannot be ordered by “EC50, cAMP” value: greater than 9950 nM for the first, greater than 9950 nM for the second.

B7 and B8 cannot be ordered by “EC50, cAMP” value: greater than 9950 nM for the first, greater than 9950 nM for the second.

B9 and B10 cannot be ordered by “EC50, cAMP” value: greater than 9950 nM for the first, greater than 9950 nM for the second.

B11 and B12 cannot be ordered by “EC50, cAMP” value: greater than 9950 nM for the first, greater than 9950 nM for the second.
